Measured values from paper PMC3433786 (The EMBO Journal, 2012).

What was measured:
AUC = target: the molecule itself; experiment: AUC
crystal structure = target: the molecule itself; experiment: crystal structure
SEC-MALS = target: the molecule itself; experiment: SEC-MALS

Protein	binding result (SEC-MALS)	further results
mouse stomatin domain (amino acids 86–213), stomatin^86–213 (domain or fragment, UniProt P54116 86-213, looked up) PSTDSLIKVDMRTISFDIPPQEVLTKDSVTISVDGVVYYRVQNATLAVANITNADSATRLLAQTTLRNALGTKNLSQILSDREEIAHHMQSTLDDATDDWGIKVERVEIKDVKLPVQLQRAMAAEAEA	–	Kd (AUC): 37 µM
stomatin^86–213 LI91,92AA (domain or fragment, mouse, UniProt P54116 86-213, looked up) PSTDSAAKVDMRTISFDIPPQEVLTKDSVTISVDGVVYYRVQNATLAVANITNADSATRLLAQTTLRNALGTKNLSQILSDREEIAHHMQSTLDDATDDWGIKVERVEIKDVKLPVQLQRAMAAEAEA	–	binding result (crystal structure): binds
stomatin^86–213 T182W (domain or fragment, mouse, UniProt P54116 86-213, looked up) PSTDSLIKVDMRTISFDIPPQEVLTKDSVTISVDGVVYYRVQNATLAVANITNADSATRLLAQTTLRNALGTKNLSQILSDREEIAHHMQSTLDDAWDDWGIKVERVEIKDVKLPVQLQRAMAAEAEA	binds	–
stomatin^86–213 L109D,L145D (domain or fragment, mouse, UniProt P54116 86-213, looked up) PSTDSLIKVDMRTISFDIPPQEVDTKDSVTISVDGVVYYRVQNATLAVANITNADSATRDLAQTTLRNALGTKNLSQILSDREEIAHHMQSTLDDATDDWGIKVERVEIKDVKLPVQLQRAMAAEAEA	binds	–
stomatin^86–213 R97D, L109D, L145D (domain or fragment, mouse, UniProt P54116 86-213, looked up) PSTDSLIKVDMDTISFDIPPQEVDTKDSVTISVDGVVYYRVQNATLAVANITNADSATRDLAQTTLRNALGTKNLSQILSDREEIAHHMQSTLDDATDDWGIKVERVEIKDVKLPVQLQRAMAAEAEA	binds	–
